Source: patent US20180251489A1

biological target: mucosa-associated lymphoid tissue lymphoma translocation protein 1 (UniProt Q9UDY8); assay: enzyme inhibition assay, 100 nM MALT1
Sequence (Q9UDY8 340-789): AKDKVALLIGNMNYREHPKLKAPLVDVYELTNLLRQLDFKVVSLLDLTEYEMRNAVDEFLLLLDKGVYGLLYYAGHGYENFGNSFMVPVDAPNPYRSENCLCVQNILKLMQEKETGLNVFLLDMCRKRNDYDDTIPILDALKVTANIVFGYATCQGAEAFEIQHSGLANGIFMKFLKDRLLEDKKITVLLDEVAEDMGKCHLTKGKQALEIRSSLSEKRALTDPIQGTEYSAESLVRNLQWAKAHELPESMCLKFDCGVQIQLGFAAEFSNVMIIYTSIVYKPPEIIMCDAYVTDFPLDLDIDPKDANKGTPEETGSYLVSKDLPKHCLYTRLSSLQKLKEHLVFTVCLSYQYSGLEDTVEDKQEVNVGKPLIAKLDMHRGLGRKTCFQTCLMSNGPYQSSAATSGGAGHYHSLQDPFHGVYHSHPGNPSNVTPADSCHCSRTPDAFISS

| Substance | Ki |
| --- | --- |
| 2-Chlorobenzyl ((S)-1-((S)-2-(((S)-1-fluoro-6-guanidino-2-oxohexan-3-yl)carbamoyl)pyrrolidin-1-yl)-3-methyl-1-oxobutan-2-yl)carbamate (peptide) | 27 nM |
| 3-Chlorobenzyl ((S)-1-((S)-2-(((S)-1-fluoro-6-guanidino-2-oxohexan-3-yl)carbamoyl)pyrrolidin-1-yl)-3-methyl-1-oxobutan-2-yl)carbamate (peptide) | 22 nM |
| 4-Bromo-N-((S)-1-(((S)-1-(((S)-1-fluoro-6-guanidino-2-oxohexan-3-yl)amino)-1-oxopropan-2-yl)amino)-3-methyl-1-oxobutan-2-yl)benzamide (peptide) | 38 nM |
| 4-Bromo-N-((S)-1-cyclohexyl-2-(((S)-1-(((S)-1-fluoro-6-guanidino-2-oxohexan-3-yl)amino)-3-hydroxy-1-oxopropan-2-yl)amino)-2-oxoethyl)benzamide (peptide) | 46 nM |
| 4-Chlorobenzyl ((S)-1-((S)-2-(((S)-1-fluoro-6-guanidino-2-oxohexan-3-yl)carbamoyl)pyrrolidin-l-yl)-3-methyl-1-oxobutan-2-yl)carbamate (peptide) | 32 nM |
| 4-bromo-N-((S)-1-(((S)-1-(((S)-1-fluoro-6-guanidino-2-oxohexan-3-yl)amino)-3-hydroxy-1-oxopropan-2-yl)amino)-3-methyl-1-oxobutan-2-yl)benzamide (peptide) | 64 nM |
| (2S,4R)-1-((4-Bromobenzoyl)-L-valyl)-4-cyano-N-((S)-1-fluoro-6-guanidino-2-oxohexan-3-yl)pyrrolidine-2-carboxamide (peptide) | 28 nM |
| (2S,4R)-1-((4-Bromobenzoyl)-L-valyl)-N-((S)-1-fluoro-6-guanidino-2-oxohexan-3-yl)-4-hydroxypyrrolidine-2-carboxamide (peptide) | 50 nM |
| (2S,4R)-1-((S)-2-(4-Bromobenzamido)-2-cyclohexylacetyl)-N-((S)-1-fluoro-6-guanidino-2-oxohexan-3-yl)-4-hydroxypyrrolidine-2-carboxamide (peptide) | 34 nM |
| (S)-1-((1-naphthoyl)-L-valyl)-N-((S)-1-fluoro-6-guanidino-2-oxohexan-3-yl)pyrrolidine-2-carboxamide (peptide) | 102 nM |
| (S)-1-((2-(3-Bromophenyl)acetyl)-L-valyl)-N-((S)-1-fluoro-6-guanidino-2-oxohexan-3-yl)pyrrolidine-2-carboxamide (peptide) | 46 nM |
| (S)-1-((2-Bromobenzoyl)-L-valyl)-N-((S)-1-fluoro-6-guanidino-2-oxohexan-3-yl)pyrrolidine-2-carboxamide (peptide) | 105 nM |
| (S)-1-((2-naphthoyl)-L-valyl)-N-((S)-1-fluoro-6-guanidino-2-oxohexan-3-yl)pyrrolidine-2-carboxamide (peptide) | 47 nM |
| (S)-1-((3-Bromobenzoyl)-L-valyl)-N-((S)-1-fluoro-6-guanidino-2-oxohexan-3-yl)pyrrolidine-2-carboxamide (peptide) | 41 nM |
| (S)-1-((3-acetamidobenzoyl)-L-valyl)-N-((S)-1-fluoro-6-guanidino-2-oxohexan-3-yl)pyrrolidine-2-carboxamide (peptide) | 54 nM |
| (S)-1-((3-cyanobenzoyl)-L-valyl)-N-((S)-1-fluoro-6-guanidino-2-oxohexan-3-yl)pyrrolidine-2-carboxamide (peptide) | 39 nM |
| (S)-1-((4-(tert-Butyl)benzoyl)-L-valyl)-N-((S)-1-fluoro-6-guanidino-2-oxohexan-3-yl)pyrrolidine-2-carboxamide (peptide) | 45 nM |
| (S)-1-((4-Bromo-2-fluorobenzoyl)-L-valyl)-N-((S)-1-fluoro-6-guanidino-2-oxohexan-3-yl)pyrrolidine-2-carboxamide (peptide) | 71 nM |
| (S)-1-((4-Bromo-2-methylbenzoyl)-L-valyl)-N-((S)-1-fluoro-6-guanidino-2-oxohexan-3-yl)pyrrolidine-2-carboxamide (peptide) | 40 nM |
